Assay results reported in IntAct's records for PubMed 29892012.

B1: E3 ubiquitin-protein ligase LNX (Homo sapiens), Q8TBB1 (parent)
chain: MNQPESANDPEPLCAVCGQAHSLEENHFYSYPEEVDDDLICHICLQALLDPLDTPCGHTYCTLCLTNFLVEKDFCPMDRKPLVLQHCKKSSILVNKLLNKLLVTCPFREHCTQVLQRCDLEHHFQTSCKGASHYGLTKDRKRRSQDGCPDGCASLTATAPSPEVSAAATISLMTDEPGLDNPAYVSSAEDGQPAISPVDSGRSNRTRARPFERSTIRSRSFKKINRALSVLRRTKSGSAVANHADQGRENSENTTAPEVFPRLYHLIPDGEITSIKINRVDPSESLSIRLVGGSETPLVHIIIQHIYRDGVIARDGRLLPGDIILKVNGMDISNVPHNYAVRLLRQPCQVLWLTVMREQKFRSRNNGQAPDAYRPRDDSFHVILNKSSPEEQLGIKLVRKVDEPGVFIFNVLDGGVAYRHGQLEENDRVLAINGHDLRYGSPESAAHLIQASERRVHLVVSRQVRQRSPDIFQEAGWNSNGSWSPGPGERSNTPKPLHPTITCHEKVVNIQKDPGESLGMTVAGGASHREWDLPIYVISVEPGGVISRDGRIKTGDILLNVDGVELTEVSRSEAVALLKRTSSSIVLKALEVKEYEPQEDCSSPAALDSNHNMAPPSDWSPSWVMWLELPRCLYNCKDIVLRRNTAGSLGFCIVGGYEEYNGNKPFFIKSIVEGTPAYNDGRIRCGDILLAVNGRSTSGMIHACLARLLKELKGRITLTIVSWPGTFL
partner: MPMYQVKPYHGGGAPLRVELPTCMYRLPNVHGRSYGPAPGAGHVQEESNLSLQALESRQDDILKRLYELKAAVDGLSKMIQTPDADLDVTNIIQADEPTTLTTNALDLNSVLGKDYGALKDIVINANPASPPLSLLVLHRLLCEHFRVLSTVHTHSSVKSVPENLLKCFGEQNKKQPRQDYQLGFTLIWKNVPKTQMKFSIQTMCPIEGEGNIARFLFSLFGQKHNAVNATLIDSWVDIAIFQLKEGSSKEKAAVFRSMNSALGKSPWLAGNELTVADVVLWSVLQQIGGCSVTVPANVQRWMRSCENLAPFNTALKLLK
B2: E3 ubiquitin-protein ligase LNX (Homo sapiens), Q8TBB1 (parent)
chain: B1 chain
partner: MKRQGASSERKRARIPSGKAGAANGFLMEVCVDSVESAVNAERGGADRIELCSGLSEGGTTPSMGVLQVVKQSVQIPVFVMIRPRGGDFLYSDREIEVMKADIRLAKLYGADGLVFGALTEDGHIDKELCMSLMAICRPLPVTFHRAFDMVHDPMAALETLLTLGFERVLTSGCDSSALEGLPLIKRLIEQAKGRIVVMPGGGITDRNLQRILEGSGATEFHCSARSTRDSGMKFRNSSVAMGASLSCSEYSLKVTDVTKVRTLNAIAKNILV
B3: E3 ubiquitin-protein ligase LNX (Homo sapiens), Q8TBB1 (parent)
chain: B1 chain
partner: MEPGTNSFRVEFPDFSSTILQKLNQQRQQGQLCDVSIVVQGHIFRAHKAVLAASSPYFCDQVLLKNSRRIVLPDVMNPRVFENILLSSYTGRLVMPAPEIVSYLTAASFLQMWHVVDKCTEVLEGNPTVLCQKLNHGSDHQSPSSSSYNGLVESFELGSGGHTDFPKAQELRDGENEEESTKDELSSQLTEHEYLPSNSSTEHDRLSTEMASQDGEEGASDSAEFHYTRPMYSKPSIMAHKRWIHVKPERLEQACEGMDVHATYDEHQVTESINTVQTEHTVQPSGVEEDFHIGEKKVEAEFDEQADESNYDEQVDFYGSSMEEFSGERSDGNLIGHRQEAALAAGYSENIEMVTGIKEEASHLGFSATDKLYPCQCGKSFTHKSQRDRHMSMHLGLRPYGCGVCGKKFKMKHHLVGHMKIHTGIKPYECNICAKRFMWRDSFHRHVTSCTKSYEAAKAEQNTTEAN
B4: E3 ubiquitin-protein ligase LNX (Homo sapiens), Q8TBB1 (parent)
chain: B1 chain
partner: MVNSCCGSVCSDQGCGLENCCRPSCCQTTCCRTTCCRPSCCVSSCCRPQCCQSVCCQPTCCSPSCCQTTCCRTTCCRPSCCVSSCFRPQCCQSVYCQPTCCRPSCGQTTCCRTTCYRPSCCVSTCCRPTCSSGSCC
B5: E3 ubiquitin-protein ligase LNX (Homo sapiens), Q8TBB1 (parent)
chain: B1 chain
partner: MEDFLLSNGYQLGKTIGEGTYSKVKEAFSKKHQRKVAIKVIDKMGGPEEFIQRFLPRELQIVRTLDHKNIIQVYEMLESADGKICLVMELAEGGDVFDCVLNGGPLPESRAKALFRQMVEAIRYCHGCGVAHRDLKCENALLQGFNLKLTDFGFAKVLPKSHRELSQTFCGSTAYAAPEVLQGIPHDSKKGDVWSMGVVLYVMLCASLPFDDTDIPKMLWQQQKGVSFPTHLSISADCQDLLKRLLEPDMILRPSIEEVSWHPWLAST
B6: E3 ubiquitin-protein ligase LNX (Homo sapiens), Q8TBB1 (parent)
chain: B1 chain
partner: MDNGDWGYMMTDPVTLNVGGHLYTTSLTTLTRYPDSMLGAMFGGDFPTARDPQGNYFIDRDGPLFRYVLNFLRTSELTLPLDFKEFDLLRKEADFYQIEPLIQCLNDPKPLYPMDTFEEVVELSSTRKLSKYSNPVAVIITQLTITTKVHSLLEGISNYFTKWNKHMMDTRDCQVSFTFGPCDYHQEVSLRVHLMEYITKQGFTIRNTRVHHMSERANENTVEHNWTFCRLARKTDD
B7: E3 ubiquitin-protein ligase LNX (Homo sapiens), Q8TBB1 (parent)
chain: B1 chain
partner: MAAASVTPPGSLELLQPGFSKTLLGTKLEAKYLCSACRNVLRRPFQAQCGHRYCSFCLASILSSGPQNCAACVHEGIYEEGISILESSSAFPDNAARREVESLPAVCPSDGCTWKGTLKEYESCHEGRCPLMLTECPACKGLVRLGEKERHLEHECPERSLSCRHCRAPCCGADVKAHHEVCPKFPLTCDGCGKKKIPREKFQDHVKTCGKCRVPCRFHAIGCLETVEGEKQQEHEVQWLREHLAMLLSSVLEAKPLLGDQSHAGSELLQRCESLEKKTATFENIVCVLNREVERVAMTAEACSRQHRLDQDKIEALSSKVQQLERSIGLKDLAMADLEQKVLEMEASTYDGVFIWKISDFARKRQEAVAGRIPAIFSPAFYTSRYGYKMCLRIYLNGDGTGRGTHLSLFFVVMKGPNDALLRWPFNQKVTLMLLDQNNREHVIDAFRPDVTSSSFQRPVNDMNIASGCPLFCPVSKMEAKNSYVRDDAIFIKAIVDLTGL
B8: Ubiquitin domain-containing protein 2 (Homo sapiens), Q8WUN7 (parent)
chain: MGGCVGAQHDSSGSLNENSEGTGVALGRNQPLKKEKPKWKSDYPMTDGQLRSKRDEFWDTAPAFEGRKEIWDALKAAAHAFESNDHELAQAIIDGANITLPHGALTECYDELGNRYQLPVYCLAPPINMIEEKSDIETLDIPEPPPNSGYECQLRLRLSTGKDLKLVVRSTDTVFHMKRRLHAAEGVEPGSQRWFFSGRPLTDKMKFEELKIPKDYVVQVIVSQPVQNPTPVEN
partner: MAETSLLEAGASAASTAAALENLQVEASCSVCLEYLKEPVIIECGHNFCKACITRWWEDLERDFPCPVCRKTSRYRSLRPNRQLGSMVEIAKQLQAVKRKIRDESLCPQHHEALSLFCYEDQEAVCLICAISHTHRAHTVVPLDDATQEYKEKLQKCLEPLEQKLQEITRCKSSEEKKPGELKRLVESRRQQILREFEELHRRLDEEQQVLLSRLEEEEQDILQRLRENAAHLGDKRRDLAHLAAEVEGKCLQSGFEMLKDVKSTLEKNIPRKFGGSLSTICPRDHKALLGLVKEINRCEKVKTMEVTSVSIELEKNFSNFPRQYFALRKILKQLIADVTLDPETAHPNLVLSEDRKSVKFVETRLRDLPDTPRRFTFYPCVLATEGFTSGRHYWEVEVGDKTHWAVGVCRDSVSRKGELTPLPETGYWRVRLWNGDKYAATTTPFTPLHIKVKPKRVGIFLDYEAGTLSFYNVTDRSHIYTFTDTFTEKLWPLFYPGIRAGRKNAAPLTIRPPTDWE
B9: E3 ubiquitin-protein ligase LNX (Homo sapiens), Q8TBB1 (parent)
chain: B1 chain
partner: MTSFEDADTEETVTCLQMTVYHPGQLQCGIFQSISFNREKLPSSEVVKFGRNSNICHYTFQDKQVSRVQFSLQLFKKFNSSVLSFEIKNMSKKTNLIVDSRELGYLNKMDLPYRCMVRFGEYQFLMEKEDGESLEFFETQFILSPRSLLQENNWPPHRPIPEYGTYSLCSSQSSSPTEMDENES

Variants of: B1
Settings: with aimp2_human AIMP2, Q13155

effect of a mutation on the interaction	Variant
disrupting interaction strength	E295K

Variants of: B2
Settings: with cutc_human CUTC

effect of a mutation on the interaction	Variant
disrupting interaction strength	E295K

Variants of: B3
Settings: with zbt43_human ZBTB43, O43298

effect of a mutation on the interaction	Variant
disrupting interaction strength	E295K

Variants of: B4
Settings: with kra42_human KRTAP4-2, Q9BYR5

effect of a mutation on the interaction	Variant
disrupting interaction strength	E295K

Variants of: B5
Settings: with tssk3_human TSSK3, Q96PN8

effect of a mutation on the interaction	Variant
disrupting interaction strength	E295K

Variants of: B6
Settings: with kctd6_human KCTD6, Q8NC69

effect of a mutation on the interaction	Variant
disrupting interaction strength	E295K

Variants of: B7
Settings: with traf2_human TRAF2, Q12933

effect of a mutation on the interaction	Variant
disrupting interaction strength	E295K

Variants of: B8
Settings: with tri39_human TRIM39, Q9HCM9

effect of a mutation on the interaction	Variant
with no effect	MGGCVGAQHDSSGSLNENSEGTGVALGRNQPLKKEKPKWKSDYPMTDGQLRSKRDEFWDTAPAFEGRKEIWDALKAAAHAFESNDHELAQAIIDGANITLPHGALTECYDELGNRYQLPVYCLAPPINMIEEKSDIETLDIPEPPPNSGYECQLRLRLSTGKDLKLVVRSTDTVFHMKRWLHAAEGVEPGSQRWFFSGRPLTDKMKFEELKIPKDYVVQVIVSQPVQNPTPVEN [R180W]

Variants of: B9
Settings: with tifa_human TIFA

effect of a mutation on the interaction	Variant
disrupting interaction strength	E295K
